Experimental data: FireProtDB (doi:10.1016/s0301-4622(00)00161-7)
Values joined by “and” are separate entries in the source; they are usually repeats but may differ in a detail not shown here. Equal entries are not always repeated.

B1: Gamma-crystallin S wild type, P22914 (protein)
chain: MSKTGTKITFYEDKNFQGRRYDCDCDCADFHTYLSRCNSIKVEGGTWAVYERPNFAGYMYILPQGEYPEYQRWMGLNDRLSSCRAVHLPSGGQYKIQIFEKGDFSGQMYETTEDCPSIMEQFHMREIHSCKVLEGVWIFYELPNYRGRQYLLDKKEYRKPIDWGAASPAVQSFRRIVE
B2: Gamma-crystallin S wild type, P06504 (protein)
chain: MSKAGTKITFFEDKNFQGRHYDSDCDCADFHMYLSRCNSIRVEGGTWAVYERPNFAGYMYILPRGEYPEYQHWMGLNDRLSSCRAVHLSSGGQYKLQIFEKGDFNGQMHETTEDCPSIMEQFHMREVHSCKVLEGAWIFYELPNYRGRQYLLDKKEYRKPVDWGAASPAVQSFRRIVE

Details: pH 7, Sodium phosphate 10 mM, whole UniProt chain shown
[1] = Homo sapiens, 20 °C, Thermal, DSC

Protein	denaturant midpoint (higher = more stable) (Homo sapiens, 20 °C, GdnHCl, CD) [M]	denaturant midpoint (higher = more stable) (Homo sapiens, 20 °C, GdnHCl, Fluorescence)	heat capacity change of unfolding [1]	unfolding free energy [1]	denaturant midpoint (higher = more stable) (Homo sapiens, 20 °C, Urea, CD) [M]	denaturant midpoint (higher = more stable) (Homo sapiens, 20 °C, Urea, Fluorescence)	heat capacity change of unfolding (Homo sapiens, Thermal, DSC)	unfolding enthalpy (calorimetric) (Homo sapiens, Thermal, DSC)	denaturant midpoint (higher = more stable) (Bos taurus, 20 °C, GdnHCl, Fluorescence)	denaturant midpoint (higher = more stable) (Bos taurus, 20 °C, Urea, Fluorescence)
B1	1.9	2.6 M and 2.5 M	1.79 kcal/mol/K and 0.84 kcal/mol/K and 1.08 kcal/mol/K	20.1 kcal/mol and 10 kcal/mol and 11.5 kcal/mol	7	8 M and 7.6 M	1.79 kcal/mol/K and 0.84 kcal/mol/K and 1.08 kcal/mol/K	179 kcal/mol and 90.8 kcal/mol and 103 kcal/mol	–	–
B2	–	–	–	–	–	–	–	–	2.1 M and 1.8 M	7 M and 6.6 M
